Assay results: patent publication US20100329990

Target: TTE (TBF-EGFP fusion with the TEV protease recognition sequence ENLYFQG, flanked by 4 glycines on each side, between TBF and EGFP)

B1: TEV protease (Gibco-Life Technologies) (protein)
chain: GESLFKGPRDYNPISSTICHLTNESDGHTTSLYGIGFGPFIITNKHLFRRNNGTLLVQSLHGVFKVKNTTTLQQHLIDGRDMIIIRMPKDFPPFPQKLKFREPQREERICLVTTNFQTKSMSSMVSDTSCTFPSSDGIFWKHWIQTKDGQCGSPLVSTRDGFIVGIHSASNFTNTNNYFTSVPKNFMELLTNQEAQQWVSGWRLNADSVLWGGHKVFMSKPEEPFQPVKEATQLMNELVYSQ
- cleavage of TTE by TEV protease, followed by time-gated emission spectra (loss of Tb3+ to EGFP energy transfer): The absence of the chromophore peak at 510 nm indicates that the energy transfer system from Tb^3+ to the chromophore is diminished.
